Measurements as given in PMC10950269.

Biological target: Recombinant truncated NA protein from the A/Perth/16/2009 H3N2 strain of influenza virus (influenza A virus A/Perth/16/2009 (H3N2))
Experiment: SEC

For “Recombinant truncated NA protein from the A/Perth/16/2009 H3N2 strain of influenza virus (enzyme)”, the stoichiometry N was 4.
